Data taken from IntAct's records for PubMed 24144979.

B1: Zinc finger protein RFP (Homo sapiens), P14373 (parent)
chain: MASGSVAECLQQETTCPVCLQYFAEPMMLDCGHNICCACLARCWGTAETNVSCPQCRETFPQRHMRPNRHLANVTQLVKQLRTERPSGPGGEMGVCEKHREPLKLYCEEDQMPICVVCDRSREHRGHSVLPLEEAVEGFKEQIQNQLDHLKRVKDLKKRRRAQGEQARAELLSLTQMEREKIVWEFEQLYHSLKEHEYRLLARLEELDLAIYNSINGAITQFSCNISHLSSLIAQLEEKQQQPTRELLQDIGDTLSRAERIRIPEPWITPPDLQEKIHIFAQKCLFLTESLKQFTEKMQSDMEKIQELREAQLYSVDVTLDPDTAYPSLILSDNLRQVRYSYLQQDLPDNPERFNLFPCVLGSPCFIAGRHYWEVEVGDKAKWTIGVCEDSVCRKGGVTSAPQNGFWAVSLWYGKEYWALTSPMTALPLRTPLQRVGIFLDYDAGEVSFYNVTERCHTFTFSHATFCGPVRPYFSLSYSGGKSAAPLIICPMSGIDGFSGHVGNHGHSMETSP

Variants of: B1
Conditions: with ubp7_human USP7, Q93009
Chain of ubp7_human USP7, Q93009 (Q93009 whole entry, looked up): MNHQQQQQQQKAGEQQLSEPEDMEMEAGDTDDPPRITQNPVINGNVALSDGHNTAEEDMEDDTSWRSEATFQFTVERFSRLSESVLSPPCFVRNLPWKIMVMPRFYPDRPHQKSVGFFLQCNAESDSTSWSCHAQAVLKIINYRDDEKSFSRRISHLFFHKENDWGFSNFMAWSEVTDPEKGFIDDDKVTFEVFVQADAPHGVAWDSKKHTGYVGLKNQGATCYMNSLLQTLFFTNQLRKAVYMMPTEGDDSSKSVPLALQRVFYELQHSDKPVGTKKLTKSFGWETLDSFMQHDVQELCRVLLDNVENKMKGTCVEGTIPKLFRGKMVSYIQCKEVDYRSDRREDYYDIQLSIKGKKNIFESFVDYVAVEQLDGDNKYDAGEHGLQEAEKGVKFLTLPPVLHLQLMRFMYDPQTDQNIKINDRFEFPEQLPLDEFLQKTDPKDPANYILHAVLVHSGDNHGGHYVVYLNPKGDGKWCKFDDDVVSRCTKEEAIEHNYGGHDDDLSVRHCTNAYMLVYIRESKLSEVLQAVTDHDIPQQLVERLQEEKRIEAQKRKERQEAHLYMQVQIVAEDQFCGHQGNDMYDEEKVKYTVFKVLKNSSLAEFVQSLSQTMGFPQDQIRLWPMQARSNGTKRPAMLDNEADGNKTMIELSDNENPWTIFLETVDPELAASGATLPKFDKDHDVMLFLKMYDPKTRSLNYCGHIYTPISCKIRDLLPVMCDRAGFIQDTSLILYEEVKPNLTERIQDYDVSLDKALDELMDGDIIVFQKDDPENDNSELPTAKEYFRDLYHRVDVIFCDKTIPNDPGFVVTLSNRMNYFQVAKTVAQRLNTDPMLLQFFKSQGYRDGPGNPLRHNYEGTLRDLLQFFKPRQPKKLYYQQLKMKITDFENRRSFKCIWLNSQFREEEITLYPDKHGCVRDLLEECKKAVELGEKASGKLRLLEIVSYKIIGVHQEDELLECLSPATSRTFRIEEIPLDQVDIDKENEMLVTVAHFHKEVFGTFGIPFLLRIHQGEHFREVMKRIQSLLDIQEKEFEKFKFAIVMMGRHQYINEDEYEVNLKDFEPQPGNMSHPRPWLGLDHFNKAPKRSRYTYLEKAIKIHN

Variant	effect of a mutation on the interaction
K79R;K304R;K380R;K382R	disrupting interaction strength

Variants of: B1
Conditions: with ubp7_human USP7, Q93009
Remark: another data set of the same source

Variant	effect of a mutation on the interaction
K79R;K304R;K380R;K382R	decreasing interaction strength
C96A;H99A	with no effect
C118A;H124A	with no effect
